# Laboratory results published in US20180360749A1, “METHODS AND COMPOSITIONS FOR DELIVERY OF MEDICAMENTS TO THE LUNGS” (Paka Pulmonary Pharmaceuticals, priority 2007, published 2018).
# Assays:
# [1] = target: T1, HNE (Homo sapiens, UniProt P08246); test: Bronchoalveolar lavage of the lungs following HNE exposure (lung blood cell level); assay type: in vivo; settings: mice
# T1 sequence (P08246 30-267): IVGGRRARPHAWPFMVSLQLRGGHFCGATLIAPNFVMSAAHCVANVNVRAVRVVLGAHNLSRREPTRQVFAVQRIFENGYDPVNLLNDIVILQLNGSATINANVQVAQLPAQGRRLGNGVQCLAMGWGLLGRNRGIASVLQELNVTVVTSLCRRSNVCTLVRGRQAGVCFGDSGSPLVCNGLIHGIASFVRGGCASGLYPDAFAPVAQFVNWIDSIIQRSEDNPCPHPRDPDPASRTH
# Description: A total of 14 animals were used in this study. Anesthetized mice received 0.1 ml of solution delivered by a blunt tip catheter to the opening of the trachea and the animals allowed to aspirate the solution into their lungs. All animals were exposed to the treatment for 2 hours and re-anesthetized. Bronchoalveolar lavage of the lungs was performed as described below. […] Target 2 (a potent HNE inhibitor developed by Zeneca in the early 1990s) when given with the HNE, reduced the average blood level in the lungs by 34% to 0.035 grams. Target C (the Zeneca molecule covalently attached to the N-terminus of the first 25 residues of the human surfactant B peptide) when given with the HNE reduced the average blood level in the lungs by 87% to 0.007 grams.
# A set of animals was used to determine the optimal concentration of HNE for the study. […] The amount of HNE was reduced to 40 micrograms to maintain a maximal detrimental but survivable effect. The animals exposed to 40 micrograms of HNE were able to survive long enough to perform the complete study. All animals remaining in the complete study were exposed to 40 micrograms of HNE.
# Target 2 (the Zeneca molecule) was given in a 70-fold molar excess relative to HNE. In the kinetic studies, Target 2 has 2 nM affinity. […] Accordingly, the Target C was given to the animals in a 100 fold molar excess relative to HNE in these studies.
# Bronchio-Alveolar lavage (BAL) is performed by 1) anesthetizing the animals; 2) performing a tracheotomy on the animals and cutting open the chest and spreading the ribs to enable full lung expansion; 3) pressurizing lml of PBS buffer solution into the lungs through the tracheotomy catheter; 4) sucking the solution out of the lungs; 5) centrifuging the recovered solution to separate the red blood cell fraction from the liquid fraction; and 6) weighing the red blood cell fraction.
# [2] = target: T1, HNE; test: Kinetic studies of affinity for HNE; assay type: biochemical
# [3] = given with 40 micrograms HNE via trachea, 2 hours exposure, weight of BAL red blood cell fraction, Target 2 70-fold, Target C 100 fold molar excess relative to HNE
substance,measurement,setting,value
Target C: the Zeneca molecule covalently attached to the N-terminus of the first 25 residues of the human surfactant B peptide (FPIPLPYCWLCRALIKRIQAMIPKG),"Lung Blood Cell Level Measurements, Mouse group 1",[1]; [3],0 g
same,"Lung Blood Cell Level Measurements, Mouse group 2",[1]; [3],0.007 g
same,"Lung Blood Cell Level Measurements, Mouse group 3",[1]; [3],0.014 g
same,"Lung Blood Cell Level Measurements, Group mean","[1]; given with 40 micrograms HNE, 2 hours exposure, mean of the mouse groups",0.007 g
same,average blood level in the lungs (lung blood cell level by weight),"[1]; given with the HNE, 2 hours exposure",0.007 grams
same,reduction of the average blood level in the lungs,"[1]; given with the HNE, relative to animals given HNE (0.053 grams)",87%
same,Ki,[2],~200 nM
same,loss of potency as compared to Target 2,[2],approximately two orders of magnitude
